Reference: article doi:10.1101/767376, “Strategies to improve scFvs as crystallization chaperones suggested by analysis of a complex with the human PHD-bromodomain SP140” (bioRxiv, 2019)

Molecular target: T1, SP140 PHD-bromodomain (construct SP140A-c055) (Homo sapiens, UniProt Q13342)
T1 construct: SP140, human, nuclear leukocyte-specific protein, amino acids 688-862 (PHD and bromodomain); Biotinylated recombinant SP140 was the target in the phage selection; Details are in supplementary methods S1; source: recombinant, purified
T1 sequence (Q13342 688-862): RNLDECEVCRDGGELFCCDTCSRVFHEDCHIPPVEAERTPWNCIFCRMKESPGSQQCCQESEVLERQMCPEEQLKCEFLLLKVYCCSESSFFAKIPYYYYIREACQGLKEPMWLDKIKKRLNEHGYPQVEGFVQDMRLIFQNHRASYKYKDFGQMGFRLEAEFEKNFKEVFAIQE
Assay: SPR; format and conditions in Supplementary Method S3 and Figure S1 (not shown)

B1: G-SP140-8 scFv (construct YYSP140A-c009) (scFv, V domains shown)
VH: EVQLLESGGGLVQPGGSLRLSCAASGFTFYGSGMGWVRQAPGKGLEWVSSIYSGSGSTYYADSVKGRFTISRDNSKNTLYLQMNSLRAEDTAVYYCARTSIYYYYMDYWGQGTLVTVSS
VL: DIQMTQSPSSLSASVGDRVTITCRASQSISSYLNWYQQKPGKAPKLLIYAASSLQSGVPSRFSGSGSGTDFTLTISSLQPEDFATYYCQQSSSLFTFGQGTKLEIK
notes: scFv (VH and VL joined by a linker) selected by phage display from the human synthetic library SciLifeLib; see Supplementary Method S3; not shown: MBP, N-terminal, cleaved; His6, N-terminal, cleaved
Kd: ~6 nM
